Measurements taken from publication PMC9396398, “Crystal structure of Ankyrin-G in complex with a fragment of Neurofascin reveals binding mechanisms required for integrity of the axon initial segment” (The Journal of Biological Chemistry, 2022).

B1: Nfasc 1198 to 1214 WT [not stated] / AnkG ANK repeats (residues 38-855, R1-24) [not stated] (parent complex)
chain 1: GEGQFNEDGSFIGQYTV
chain 2: KSDANASYLRAARAGHLEKALDYIKNGVDVNICNQNGLNALHLASKEGHVEVVSELLQREANVDAATKKGNTALHIASLAGQAEVVKVLVTNGANVNAQSQNGFTPLYMAAQENHLEVVRFLLDNGASQSLATEDGFTPLAVALQQGHDQVVSLLLENDTKGKVRLPALHIAARKDDTKAAALLLQNDTNADIESKMVVNRATESGFTPLHIAAHYGNINVATLLLNRAAAVDFTARNDITPLHVASKRGNANMVKLLLDRGAKIDAKTRDGLTPLHCGARSGHEQVVEMLLDRAAPILSKTKNGLSPLHMATQGDHLNCVQLLLQHNVPVDDVTNDYLTALHVAAHCGHYKVAKVLLDKKANPNAKALNGFTPLHIACKKNRIRVMELLLKHGASIQAVTESGLTPIHVAAFMGHVNIVSQLMHHGASPNTTNVRGETALHMAARSGQAEVVRYLVQDGAQVEAKAKDDQTPLHISARLGKADIVQQLLQQGASPNAATTSGYTPLHLSAREGHEDVAAFLLDHGASLSITTKKGFTPLHVAAKYGKLEVASLLLQKSASPDAAGKSGLTPLHVAAHYDNQKVALLLLDQGASPHAAAKNGYTPLHIAAKKNQMDIATSLLEYGADANAVTRQGIASVHLAAQEGHVDMVSLLLSRNANVNLSNKSGLTPLHLAAQEDRVNVAEVLVNQGAHVDAQTKMGYTPLHVGCHYGNIKIVNFLLQHSAKVNAKTKNGYTPLHQAAQQGHTHIINVLLQNNASPNELTVNGNTALAIARRLGYISVVDTLKVVTEEIMTTTTITEKHKMNVPETMNEVLDMS
B2: Nfasc ankyrin-binding domain (ABD, residues 1187-1214) [not stated] / AnkG ANK repeats (residues 38-855, R1-24) [not stated] (parent complex)
chain 1: SDDSLVDYGEGGEGQFNEDGSFIGQYTV
chain 2: B1 chain 2

Variants of: B1
Assay: ITC; parent: 340 nM

| Kd [nM] | Variant |
| --- | --- |
| 7700 | chain 1 GEGQFNEKGSFIGQYTV |
| 1300 | chain 1 GEGQFNEAGSFIGQYTV |
| 7100 | chain 1 GEGQQNEDGSFIGQYTV |
| 260 | chain 1 GEGQFAEDGSFIGQYTV |
| 3200 | chain 1 GEGQFNEDGSFIGQETV |
| 1400 | chain 1 GEGQFNEDGSQIGQYTV |
| 1000 | chain 1 GEGQFNEDGSFQGQYTV |
| 9200 | chain 1 GEGQFNADGSFIGQYTV |
| 460 | chain 1 GEGQFNEDGSFIGQYAV |

Variants of: B2
Assay: ITC; parent: 220 nM

| Kd [nM] | Variant |
| --- | --- |
| 670 | chain 2 R281A, chain 2 Q314A |
| 3000 | chain 2 I240Q, chain 2 L273Q |
| 1800 | chain 2 M311Q |
| 1300 | chain 2 V245Q |
| 2000 | chain 2 L306Q, chain 2 L339Q |
| 1700 | chain 2 H347A |
| 2500 | chain 2 T302A, chain 2 N304A |
